# Experimental data: patent US20070141060A1, “Hmgb1 protein inhibitors for the regulation of smooth muscle cells and endothelial cells profileration” (BIO3 RESEARCH SRL, priority 2004, published 2007)
# Experiments:
# Type in all cases: cell-based
# [1] = test system: Bovine aorta endothelial cells; experiment: Proliferation of bovine aorta endothelial cells (cell counting); conditions: DMEM + different concentrations of HMGB1, no FCS; cells counted at 24 hours intervals; FIG. 1
# Protocol: (§1) Bovine aorta endothelial cells or bovine smooth muscle at an early passage were cultured in DMEM+10% FCS. Cells were then kept for 16 hours in DMEM in absence of FCS, and plated in 6 cm wells of 6-well plates (about 50 000 cells per well). Cells were then cultured, in triplicate, in the presence of DMEM alone, DMEM+10% FCS, or DMEM+different concentrations of HMGB1. At 24 hours intervals cells were counted under the microscope.
# [2] = test system: bovine smooth muscle; experiment: Proliferation of bovine smooth muscle cells (cell counting)
# Protocol: as §1
# [3] = test system: 3T3 mouse fibroblasts; experiment: Proliferation of 3T3 mouse fibroblasts in similar conditions; conditions: data not shown
molecule,measurement,setting,value
"HMGB1: HMGB1 protein, released after mechanical injury of cells; induces smooth muscle cell and endothelial cell proliferation (protein, UniProt P09429 1-215, looked up) High mobility group protein B1: MGKGDPKKPRGKMSSYAFFVQTCREEHKKKHPDASVNFSEFSKKCSERWKTMSAKEKGKFEDMAKADKARYEREMKTYIPPKGETKKKFKDPNAPKRPPSAFFLFCSEYRPKIKGEHPGLSIGDVAKKLGEMWNNTAADDKQPYEKKAAKLKEKYEKDIAAYRAKGKPDAAKKGVVKAEKSKKKKEEEEDEEDEEDEEEEEDEEDEDEEEDDDDE",cell division / proliferation of BAEC,[1],keep dividing
same,cell division / proliferation of BSMC,"[2]; DMEM + different concentrations of HMGB1, no FCS, single addition, cells counted at 24 hours intervals, FIG. 1","a couple of rounds of division in BSMC, followed by quiescence"
same,cell proliferation of BSMC on repeated addition,"[2]; repeated addition of HMGB1 every 24 hours, data not shown",keep proliferating
same,proliferation of 3T3 mouse fibroblasts,[3],does not cause the proliferation
